Source: patent US7285654 (SIGNAL PHARMACEUTICALS, dated 2007)
Square brackets hold non-standard residues; d marks the D form. Ends that are not written are not given here. pS = N[C@@H](COP(=O)(O)O)C(=O)O

Biological target: IKK signalsome (stimulus-inducible IκB kinase complex) immunopurified from TNFα-stimulated HeLa cells (human)
Assay: product inhibition of immunopurified IKK signalsome; 32P incorporation into GST-IκBα (1-54), TCA precipitation, Dixon analysis

Sequence of IKK signalsome (stimulus-inducible IκB kinase complex) immunopurified from TNFα-stimulated HeLa cells (human) (chain, as listed by the source, chain 1 of 3): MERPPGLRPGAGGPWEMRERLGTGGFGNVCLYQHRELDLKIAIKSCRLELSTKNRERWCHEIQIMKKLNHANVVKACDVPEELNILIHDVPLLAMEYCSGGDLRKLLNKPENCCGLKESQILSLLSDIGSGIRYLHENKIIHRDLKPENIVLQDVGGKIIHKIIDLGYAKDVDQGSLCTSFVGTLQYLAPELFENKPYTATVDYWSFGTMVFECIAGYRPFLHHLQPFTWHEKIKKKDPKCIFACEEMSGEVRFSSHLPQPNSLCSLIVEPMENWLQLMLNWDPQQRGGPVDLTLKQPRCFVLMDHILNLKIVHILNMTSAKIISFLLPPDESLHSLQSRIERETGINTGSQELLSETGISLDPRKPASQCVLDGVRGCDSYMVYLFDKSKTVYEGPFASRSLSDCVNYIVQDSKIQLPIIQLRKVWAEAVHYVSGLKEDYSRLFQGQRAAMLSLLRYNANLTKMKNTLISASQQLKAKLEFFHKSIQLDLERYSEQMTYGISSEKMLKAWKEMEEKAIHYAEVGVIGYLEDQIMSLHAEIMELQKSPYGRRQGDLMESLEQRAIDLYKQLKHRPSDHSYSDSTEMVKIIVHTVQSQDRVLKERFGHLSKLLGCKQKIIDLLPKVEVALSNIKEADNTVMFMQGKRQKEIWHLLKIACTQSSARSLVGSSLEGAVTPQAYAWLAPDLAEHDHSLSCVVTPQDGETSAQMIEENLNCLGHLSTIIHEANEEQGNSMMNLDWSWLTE
Sequence of IKK signalsome (stimulus-inducible IκB kinase complex) immunopurified from TNFα-stimulated HeLa cells (human) (chain, as listed by the source, chain 2 of 3): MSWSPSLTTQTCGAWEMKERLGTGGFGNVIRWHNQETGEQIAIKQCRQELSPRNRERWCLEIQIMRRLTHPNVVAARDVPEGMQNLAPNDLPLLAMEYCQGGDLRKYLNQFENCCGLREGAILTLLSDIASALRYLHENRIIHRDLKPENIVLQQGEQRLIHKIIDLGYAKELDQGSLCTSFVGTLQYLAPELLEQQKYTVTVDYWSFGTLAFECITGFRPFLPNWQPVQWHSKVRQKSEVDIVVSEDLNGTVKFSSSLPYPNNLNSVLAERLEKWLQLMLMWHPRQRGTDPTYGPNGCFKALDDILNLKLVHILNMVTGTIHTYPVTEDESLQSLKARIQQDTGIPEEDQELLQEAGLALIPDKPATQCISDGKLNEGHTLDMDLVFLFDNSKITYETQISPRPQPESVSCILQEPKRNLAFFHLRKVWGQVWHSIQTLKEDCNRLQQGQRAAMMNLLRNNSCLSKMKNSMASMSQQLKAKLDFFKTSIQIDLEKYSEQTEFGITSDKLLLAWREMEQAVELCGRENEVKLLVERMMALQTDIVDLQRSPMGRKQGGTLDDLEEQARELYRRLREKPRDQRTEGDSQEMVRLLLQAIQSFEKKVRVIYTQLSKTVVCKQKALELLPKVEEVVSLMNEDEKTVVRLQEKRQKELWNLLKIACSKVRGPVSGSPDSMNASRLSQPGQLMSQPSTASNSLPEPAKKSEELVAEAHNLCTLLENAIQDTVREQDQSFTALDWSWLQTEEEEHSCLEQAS
Sequence of IKK signalsome (stimulus-inducible IκB kinase complex) immunopurified from TNFα-stimulated HeLa cells (human) (chain, as listed by the source, chain 3 of 3): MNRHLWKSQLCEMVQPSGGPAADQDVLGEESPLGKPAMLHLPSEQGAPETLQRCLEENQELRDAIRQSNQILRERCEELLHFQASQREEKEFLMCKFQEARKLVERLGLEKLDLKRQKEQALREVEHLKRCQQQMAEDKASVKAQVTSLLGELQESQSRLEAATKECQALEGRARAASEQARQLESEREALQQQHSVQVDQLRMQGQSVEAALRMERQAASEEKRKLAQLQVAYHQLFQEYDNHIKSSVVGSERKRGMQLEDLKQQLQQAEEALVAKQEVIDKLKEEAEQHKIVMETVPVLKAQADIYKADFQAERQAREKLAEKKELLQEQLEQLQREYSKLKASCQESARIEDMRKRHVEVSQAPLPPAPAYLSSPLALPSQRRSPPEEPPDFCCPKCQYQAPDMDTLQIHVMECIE

- Ki: 14 µM
B1: IκBα (21-41) peptide P32,36 (doubly phosphorylated IκBα peptide bearing phosphoserines at both positions 32 and 36) (peptide)
peptide: CKKERLLDDRHD[pS]GLD[pS]MKDEE
notes: The phosphorylated forms are described as the same peptide chemically phosphorylated; also called P32, 36 peptide
